Data from publication PMC4019695.

What was measured:
[1] = molecular target: Drosophila 80S ribosome (Drosophila (endogenous in fly embryos)) (UniProt P46222); assay: FRET or BRET
[2] = molecular target: Drosophila 80S ribosome (Drosophila (endogenous in fly embryos)) (UniProt P46222); assay: SEC

Substance | Kd [1] [nM] | fold reduction of binding against NT-dFMRP [2] [fold]
NT-dFMRP KH1 (I244N) mutant (from UniProt Q9NFU0 220-681) (domain or fragment) | 130 | 2
NT-dFMRP KH2 (I307N) mutant (from UniProt Q9NFU0 220-681) (domain or fragment) | 61 | –
NT-dFMRP ΔRGG mutant, residues 220-413 (from UniProt Q9NFU0 220-413) (domain or fragment) | > 2000 | –
